Assay [1] has as its target T1, mutated HER3(Y>F) in NRG1-beta1-stimulated Hek293 cells, 14 tyrosines of the intracellular domain replaced … (UniProt P21860 20-1342, limits assumed).
T1 construct: whole, on cells; also called mutated version of HER3 lacking the Tyr1289 phosphorylation site
Briefly: IHC (Ventana BenchMark XT), FFPE Hek293 cells.
Description: The IHC experiments were performed on the BenchMark XT platform from Ventana. For the assay an anti-pHER3 dual binder was used that consisted of ssFab 7.2.32 (binding a non-phospho epitope of the intracellular domain of HER3), ssFab 4.1.15 (binding the pTyr1289 phospho-epitope of the intracellular domain of HER3) and a flexible linker. […] A biotin label within the linker molecule served as a detection tag for the streptavidin-based Ventana iVIEW DAB detection kit.
In order to test the specificity of the anti-pHER3 dual binder molecule an elaborate test system based on formalin-fixed paraffin-embedded (FFPE) Hek293 cells was used. Hek293 cells had been transiently transfected with both HER2 and HER3 expression vectors. In one case an HER3 expression vector was used that encodes an mutated version of HER3, in which 14 tyrosines of the intracellular domain that serve as phosphorylation sites are replaced with phenylalanines (Y975F, Y1054F, Y1132F, Y1159F, Y1197F, Y1199F, Y1222F, Y1224F, Y1260F, Y1262F, Y1276F, Y1289F, Y1307F, Y1328F). Cells were fixed with formalin and embedded in paraffin according to standard protocols. […]

Assay [2] concerns the target T2, IGF-1R(1340-1366)[1346-pTyr]amid, phosphorylated IGF-1R peptide (phosphotyrosine at 1346 (IGF-1R numbering); C-terminal amide; in Examples 2.6 and 2.7 a biotinylated PEG-linker bound via glutamic acid at position 1340).
T2 construct: also called pIGF-1R peptide; pIGF-1R
T2 peptide: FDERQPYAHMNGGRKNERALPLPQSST
Put plainly: SPR (Biacore 3000, SA sensor, 25 C): both ssFab' hybridized on the immobilized biotinylated 8xC18 linker, pIGF-1R peptide injected as analyte. For orientation: SPR reads the build-up and loss of mass on a sensor chip optically.
Description: 89 RU amino-PEO-biotin were captured on the reference flow cell 1.
(§1) The system was regenerated after each concentration step with a 12 sec pulse of 250 mM NaOH and was reloaded with ssFab ligand.

For assay [3], the target named is T2, IGF-1R(1340-1366)[1346-pTyr]amid, …. Briefly: SPR (Biacore 3000, 25 C).
Assay [4] deals with T3, phosphorylated IR in IR overexpressing 3T3 cells stimulated with Insulin (UniProt P06213 28-1382, limits assumed, phosphorylated after stimulation with 100 ng/ml Insulin).
T3 construct: whole, on cells; also called pIR (cells)
Put plainly: IHC (Ventana BenchMark XT), FFPE 3T3 cells.
Description: (§2) In order to test the specificity of the anti-pIGF-1R dual binder molecule an elaborate test system based on formalin-fixed paraffin-embedded (FFPE) 3T3 cells was used. 3T3 cells had been stably transfected with either IGF-1R or IR expression vectors. Cells were fixed with formalin and embedded in paraffin according to standard protocols. Prior to fixation cells were stimulated with 100 ng/ml of either IGF-1 or Insulin to induce IGF1-R or IR phosphorylation or were left untreated.
(§3) A biotin label within the linker molecule served as a detection tag for the streptavidin-based Ventana iVIEW DAB detection kit.

For assay [5], the target named is T4, IR (insulin receptor) in untreated IR overexpressing 3T3 cells (UniProt P06213 28-1382, limits assumed).
T4 construct: whole, on cells; also called IR (unstimulated)
Put plainly: IHC (Ventana BenchMark XT), FFPE 3T3 cells.
Description: as §2, §3

For assay [6], the target named is T2, IGF-1R(1340-1366)[1346-pTyr]amid, …. Put plainly: SPR (Biacore 3000, 25 C), ssFab's on biotinylated 8xC18 linker on SA chip, pIGF-1R peptide injected.
Description: as §1
Assay [7] deals with T5, wild-type HER3 in unstimulated Hek293 cells (transfected with HER2 and HER3) (UniProt P21860 20-1342, limits assumed).
T5 construct: whole, on cells; also called HER3 (unstimulated cells)
Briefly: IHC (Ventana BenchMark XT), ssFab on 4xC18 linker, FFPE Hek293 cells.
Excerpt: (§4) Hek293 cells had been transiently transfected with both HER2 and HER3 expression vectors. In one case an HER3 expression vector was used that encodes an mutated version of HER3, in which 14 tyrosines of the intracellular domain that serve as phosphorylation sites are replaced with phenylalanines (Y975F, Y1054F, Y1132F, Y1159F, Y1197F, Y1199F, Y1222F, Y1224F, Y1260F, Y1262F, Y1276F, Y1289F, Y1307F, Y1328F). Cells were fixed with formalin and embedded in paraffin according to standard protocols.
(§5) 1 μg/ml per ssFab fragment of only ssFab 7.2.32 or only ssFab 4.1.15, respectively, and an equimolar amount of 4×C18 linker, as well as a mixture of both ssFab′ fragments of ssFab 7.2.32 and ssFab 4.1.15 (both at 1 μg/ml) and an equimolar amount of 4×C18 linker, respectively, were used for detection. A biotin label within the linker molecule served as a detection tag for the streptavidin-based Ventana iVIEW DAB detection kit.

The target in assay [8] is T1, mutated HER3(Y>F) in …. The description is as above.
Excerpt: as §4, §5

The record followed here is patent publication US20130288266A1 (ROCHE DIAGNOSTICS OPERATIONS, published 2013).

“And” between values parts separate entries of the source, which are not always exact repeats. Equal values may be shown once.

T1 sequence (P21860 other isoform, or with tags, fused parts or gaps limits assumed, change not shown): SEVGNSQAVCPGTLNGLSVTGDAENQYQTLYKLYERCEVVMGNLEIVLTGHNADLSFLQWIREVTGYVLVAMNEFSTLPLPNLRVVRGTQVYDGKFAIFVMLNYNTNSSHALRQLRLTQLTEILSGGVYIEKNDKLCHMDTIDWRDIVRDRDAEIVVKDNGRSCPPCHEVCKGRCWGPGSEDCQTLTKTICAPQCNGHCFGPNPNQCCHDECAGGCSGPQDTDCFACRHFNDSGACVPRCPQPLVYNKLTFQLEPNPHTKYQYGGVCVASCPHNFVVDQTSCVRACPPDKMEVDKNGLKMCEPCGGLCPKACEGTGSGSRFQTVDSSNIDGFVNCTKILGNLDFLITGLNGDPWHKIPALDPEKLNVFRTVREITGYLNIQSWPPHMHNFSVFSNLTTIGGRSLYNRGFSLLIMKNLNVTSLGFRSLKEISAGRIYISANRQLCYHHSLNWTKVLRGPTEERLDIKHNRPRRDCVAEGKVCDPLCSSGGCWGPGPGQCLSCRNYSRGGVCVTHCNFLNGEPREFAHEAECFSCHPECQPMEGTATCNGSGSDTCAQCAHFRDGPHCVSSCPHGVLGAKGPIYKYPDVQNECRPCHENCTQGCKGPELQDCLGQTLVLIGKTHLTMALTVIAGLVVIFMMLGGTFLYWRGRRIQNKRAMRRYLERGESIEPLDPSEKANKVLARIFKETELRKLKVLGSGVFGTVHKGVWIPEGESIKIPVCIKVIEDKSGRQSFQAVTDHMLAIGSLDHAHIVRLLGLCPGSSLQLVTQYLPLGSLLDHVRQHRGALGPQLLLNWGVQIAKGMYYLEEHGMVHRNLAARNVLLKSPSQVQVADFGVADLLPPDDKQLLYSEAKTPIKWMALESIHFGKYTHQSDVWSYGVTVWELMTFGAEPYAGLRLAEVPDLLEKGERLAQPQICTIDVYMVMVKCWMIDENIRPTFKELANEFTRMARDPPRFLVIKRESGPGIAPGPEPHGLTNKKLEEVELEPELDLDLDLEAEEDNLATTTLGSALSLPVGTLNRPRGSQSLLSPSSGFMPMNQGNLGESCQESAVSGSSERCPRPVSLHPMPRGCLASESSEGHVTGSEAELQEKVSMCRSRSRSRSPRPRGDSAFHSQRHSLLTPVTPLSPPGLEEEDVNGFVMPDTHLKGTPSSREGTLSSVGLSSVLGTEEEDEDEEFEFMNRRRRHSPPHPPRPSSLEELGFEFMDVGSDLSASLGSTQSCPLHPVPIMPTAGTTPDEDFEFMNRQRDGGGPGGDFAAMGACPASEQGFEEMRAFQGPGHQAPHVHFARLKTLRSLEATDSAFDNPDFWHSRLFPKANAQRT
T4 sequence (P06213 28-1382 limits assumed): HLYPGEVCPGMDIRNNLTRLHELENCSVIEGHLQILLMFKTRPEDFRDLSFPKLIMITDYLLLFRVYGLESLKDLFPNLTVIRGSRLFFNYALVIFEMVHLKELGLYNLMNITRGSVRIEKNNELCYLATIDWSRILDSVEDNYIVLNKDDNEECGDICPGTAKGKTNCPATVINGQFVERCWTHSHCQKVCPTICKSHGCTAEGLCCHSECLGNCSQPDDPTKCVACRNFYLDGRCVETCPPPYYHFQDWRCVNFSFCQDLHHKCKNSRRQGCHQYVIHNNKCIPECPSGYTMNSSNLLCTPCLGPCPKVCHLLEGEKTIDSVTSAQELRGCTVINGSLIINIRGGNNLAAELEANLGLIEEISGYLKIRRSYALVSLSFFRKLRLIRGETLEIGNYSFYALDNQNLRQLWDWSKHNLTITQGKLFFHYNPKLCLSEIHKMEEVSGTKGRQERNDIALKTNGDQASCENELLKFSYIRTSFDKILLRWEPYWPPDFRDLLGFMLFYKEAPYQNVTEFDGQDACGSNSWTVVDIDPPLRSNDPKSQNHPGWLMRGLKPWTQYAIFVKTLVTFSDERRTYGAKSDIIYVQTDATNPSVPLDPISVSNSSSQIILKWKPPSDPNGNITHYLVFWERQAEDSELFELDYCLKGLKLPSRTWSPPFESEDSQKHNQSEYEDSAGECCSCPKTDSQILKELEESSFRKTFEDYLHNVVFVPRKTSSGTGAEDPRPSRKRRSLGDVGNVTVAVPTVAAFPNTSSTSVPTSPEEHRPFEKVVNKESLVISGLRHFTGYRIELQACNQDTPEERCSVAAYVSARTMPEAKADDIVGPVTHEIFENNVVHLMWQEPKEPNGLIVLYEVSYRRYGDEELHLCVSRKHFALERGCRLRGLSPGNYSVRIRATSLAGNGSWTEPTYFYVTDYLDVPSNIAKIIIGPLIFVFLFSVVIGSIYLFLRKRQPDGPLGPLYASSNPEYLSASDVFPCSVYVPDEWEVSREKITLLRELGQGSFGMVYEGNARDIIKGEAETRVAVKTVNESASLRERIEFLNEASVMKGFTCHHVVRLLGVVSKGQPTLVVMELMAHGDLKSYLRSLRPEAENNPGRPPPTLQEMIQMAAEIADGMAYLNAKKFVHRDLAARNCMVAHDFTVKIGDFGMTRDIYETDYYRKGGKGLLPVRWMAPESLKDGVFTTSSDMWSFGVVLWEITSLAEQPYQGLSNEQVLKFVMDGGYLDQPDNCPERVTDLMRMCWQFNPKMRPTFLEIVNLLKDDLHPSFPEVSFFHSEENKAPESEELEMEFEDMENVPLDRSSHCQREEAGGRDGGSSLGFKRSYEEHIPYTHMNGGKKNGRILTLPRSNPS
T3 sequence (P06213 28-1382 limits assumed): as above
T5 sequence (P21860 20-1342 limits assumed): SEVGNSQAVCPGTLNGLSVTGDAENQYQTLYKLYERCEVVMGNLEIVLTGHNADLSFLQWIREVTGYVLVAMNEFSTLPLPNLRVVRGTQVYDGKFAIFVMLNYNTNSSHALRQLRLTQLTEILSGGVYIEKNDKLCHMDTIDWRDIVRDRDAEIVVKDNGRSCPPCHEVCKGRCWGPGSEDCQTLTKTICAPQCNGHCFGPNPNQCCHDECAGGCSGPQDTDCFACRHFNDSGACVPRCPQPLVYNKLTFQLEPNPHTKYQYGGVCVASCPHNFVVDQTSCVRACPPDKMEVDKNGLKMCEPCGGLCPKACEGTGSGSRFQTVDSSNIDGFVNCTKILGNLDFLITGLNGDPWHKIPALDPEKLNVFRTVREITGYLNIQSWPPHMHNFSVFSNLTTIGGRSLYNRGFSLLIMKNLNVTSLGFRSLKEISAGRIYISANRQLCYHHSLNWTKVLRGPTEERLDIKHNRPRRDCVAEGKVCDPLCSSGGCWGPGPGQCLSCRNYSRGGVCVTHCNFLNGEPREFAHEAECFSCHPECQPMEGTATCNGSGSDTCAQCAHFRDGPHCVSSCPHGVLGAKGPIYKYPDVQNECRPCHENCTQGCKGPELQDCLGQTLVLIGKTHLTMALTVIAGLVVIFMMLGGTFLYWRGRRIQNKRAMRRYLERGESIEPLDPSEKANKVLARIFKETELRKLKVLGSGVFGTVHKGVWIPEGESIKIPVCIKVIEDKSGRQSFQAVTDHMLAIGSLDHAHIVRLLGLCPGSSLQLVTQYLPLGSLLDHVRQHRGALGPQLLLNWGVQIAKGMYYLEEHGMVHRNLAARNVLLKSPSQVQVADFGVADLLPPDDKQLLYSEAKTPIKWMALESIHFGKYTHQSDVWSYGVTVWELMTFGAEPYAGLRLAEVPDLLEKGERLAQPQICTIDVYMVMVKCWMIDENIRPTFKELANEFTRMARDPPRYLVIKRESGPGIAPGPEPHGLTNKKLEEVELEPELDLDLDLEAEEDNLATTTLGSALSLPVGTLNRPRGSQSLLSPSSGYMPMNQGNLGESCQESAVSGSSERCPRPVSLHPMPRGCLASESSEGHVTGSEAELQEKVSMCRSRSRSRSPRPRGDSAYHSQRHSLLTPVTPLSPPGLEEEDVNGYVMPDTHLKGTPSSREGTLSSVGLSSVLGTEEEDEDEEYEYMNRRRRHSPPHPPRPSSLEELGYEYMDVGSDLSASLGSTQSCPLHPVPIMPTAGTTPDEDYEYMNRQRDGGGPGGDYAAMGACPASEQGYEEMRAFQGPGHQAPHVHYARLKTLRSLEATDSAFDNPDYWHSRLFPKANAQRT

B1: anti-pHER3 dual binder consisting of ssFab 7.2.32, ssFab 4.1.15 and a flexible linker with a 4xC18 spacer (linker 12 of example 2.4) (bispecific antibody, V domains shown)
VH 1: EFEVQLQESGGGLVQPKGSLQLSCAASGFTFNTYAMHWVRQAPGKGLEWVARIRTESSDYATDYADSVKDRFIISRDDSQNMLYLQMNNLKSEDTAIYYCVRSSGFDYWGQGTTLTVSSS
VL 1: DIQMTQSPSLPVSLGDQASISCRSSQSLVHDNGNTYLHWFLQKPGQSPKLLIYKVSNRFSGVPDRFGGSGSGTDFTLKISGVEAEDLGVYFCSQGTHVPTFGGGTKLEIK
VH 2: EFEVQLQESGPELVKPGTSVTISCKTSGYAFSNSWMSWVKQRPGQGLEWIGRIFPGNGDTDYNGNFRAKATLTADKSSSTAFMQLSRLTSVDSAVYFCARSRGLRQGAGFAYWGQGTLVTVSA
VL 2: not shown
notes: Two recombinant Fab-oligo conjugates hybridised on biotinylated linker 12 ((Spacer C18)2-(Biotin-dT)-(Spacer C18)2)
With B1, the binding result in assay [1] was “no binding (tested: 1 µg/ml per ssFab)”.

B2: anti-pIGF-1R dual binder composed of ssFab' 1.4.168, ssFab' 30.4.33 and an 8xC18 linker molecule (linker 14 of example 2.4) (bispecific antibody, V domains shown)
VH 1: EVQLQESGPEVAKPGASVKMSCKASGYTFTDYIIHWVKQRPGQDLEWIGYINPYNDKSKYNEKFKDKATLTSDRSSSTSYMDLSTLTSDDSAVYYCTRHGYYRSDGFDYWGQGTTLTVSS
VL 1: DIVLTQSPTIMSASPGEKVTMTCRASSSVSSSSLHWYQQKPGSSPKLWIYSTSTLASGVPARFSGSGSGTSYSLTISGVETEDAATYYCQQYGTSPYTFGSGTKVDIK
VH 2: QCDVKLVESGGGLVKPGGSLKLSCAASGFTFSDYPMSWVRQTPEKRLEWVATITTGGTYTYYPDSIKGRFTISRDNAKNTLYLQMGSLQSEDAAMYYCTRVKTDLWWGLAYWGQGTLVTVSA
VL 2: QLVLTQSSSASFSLGASAKLTCTLSSQHSTYTIEWYQQQPLKPPKYVMELKKDGSHTTGDGIPDRFSGSSSGADRYLSISNIQPEDESIYICGVGDTIKEQFVYVFGGGTKVTVLG
modifications: 17 mer ssDNA (SEQ ID NO:6) on hinge cysteine; ssDNA oligonucleotide on the Fab' hinge region
notes: Two Fab'-ssDNA conjugates hybridised on biotinylated linker 14 ((Spacer C18)4-(Biotin-dT)-(Spacer C18)4)
B2: in assay [2], the Kd (commonly the concentration at which binding is half-saturated) is 0.0112 nM and 0.011 nM; the kon (usually the second-order rate constant of association) was 1.24e+06 M⁻¹ s⁻¹. In addition, in assay [3], the “fold affinity improvement compared to ssFab' 1.4.168 alone” value is 300 fold, the “fold affinity improvement compared to ssFab' 30.4.33 alone” value is 200 fold, the “fold lower off-rate than ssFab' 1.4.168” value was determined as 230 fold and the “fold lower off-rate than ssFab' 30.4.33” value is 110 fold. The binding result in assay [4] is reported as “no binding (tested: 0.5 µg/ml per ssFab')”. The binding result in assay [5] was “no binding (tested: 0.5 µg/ml per ssFab')”. Also, in assay [6], the Kd is around 0.01 nM and the koff (in general, the first-order rate constant of dissociation) worked out at 1.39e-05 s⁻¹.

B3: ssFab 4.1.15 (recombinant Fab 4.1.15 conjugated to the 17 mer oligo by sortase) (Fab, V domains shown)
VH: EVQLQESGPELVKPGTSVTISCKTSGYAFSNSWMSWVKQRPGQGLEWIGRIFPGNGDTDYNGNFRAKATLTADKSSSTAFMQLSRLTSVDSAVYFCARSRGLRQGAGFAYWGQGTLVTVSA
VL: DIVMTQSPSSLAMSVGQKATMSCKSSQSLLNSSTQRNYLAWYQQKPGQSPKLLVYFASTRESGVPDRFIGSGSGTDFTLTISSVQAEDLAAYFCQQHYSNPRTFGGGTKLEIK
notes: also called Fab-Oligo 4.1.15
Consider B3, for which the binding result in assay [7] and in assay [8] was “no binding (tested: 1 µg/ml)” in each case.
